# Experimental data: article PMC7261175, “A splice site-sensing conformational switch in U2AF2 is modulated by U2AF1 and its recurrent myelodysplasia-associated mutation” (Nucleic Acids Research, 2019)
# Substitutions are numbered along the chain they refer to. Names may count otherwise.
# B1: AdML (ssRNA)
# RNA: UCCCUUUUUUUUCCACAGCUCGCGGU
# B2: His6SumoMBP-U2AF1 (residues 1-188, C67S, C-terminal alanine) (domain or fragment, human)
# chain: MAEYLASIFGTEKDKVNCSFYFKIGACRHGDRCSRLHNKPTFSQTIALLNIYRNPQNSSQSADGLRSAVSDVEMQEHYDEFFEEVFTEMEEKYGEVEEMNVCDNLGDHLVGNVYVKFRREEDAEKAVIDLNNRWFNGQPIHAELSPVTDFREACCRQYEMGECTRGGFCNFMHLKPISRELRRELYGRA
# notes: C-terminal alanine added to enhance soluble protein expression; A three-alanine linker is part of the N-terminal tag; Modified pCDF-1b vector; also called U2AF^35; MBP-fused U2AF1; source: E. coli BL21(DE3), purified (HisTrap, Superdex-75 SEC); not shown: His6, N-terminal, kept; Sumo, N-terminal, kept; MBP, N-terminal, kept
# B3: S34F-mutant His6SumoMBP-U2AF1 (residues 1-188, C67S, C-terminal alanine) (domain or fragment, human)
# chain: B2 chain with S34F
# notes: C-terminal alanine added to enhance soluble protein expression; S34F was introduced into the corresponding wild-type U2AF1 construct; three-alanine linker in the N-terminal tag as for m1; also called S34F U2AF1; S34F mutant U2AF1; source: E. coli BL21(DE3), purified by identical methods as the wild-type parent (HisTrap, Superdex-75 SEC); not shown: His6, N-terminal, kept; Sumo, N-terminal, …
# B4: IgM (-3C) (structured_RNA)
# RNA: UGUCUCUGUCACCUGCAGGUGAAAUG
# modifications: 3' PEG18-DNA conjugate
# B5: IgM(-3U) (structured_RNA)
# RNA: UGUCUCUGUCACCUGUAGGUGAAAUG
# modifications: 3' PEG18-DNA conjugate
# B6: CASP8 (ssRNA)
# RNA: CCAUUUAUUUUGACUUAGAUUAUAUU
# modifications: 3' PEG18-DNA conjugate
# B7: FMR1 (ssRNA)
# RNA: ACUUUUAACUCUCGAUAGGAACUAAU
# modifications: 3' PEG18-DNA conjugate
# B8: DEK (-3U) (ssRNA)
# RNA: UACUAAAUUAAUUUCUAGAAAAGAGU
# modifications: 3' PEG18-DNA conjugate
# Tests used:
# [1] = molecular target: T1, His6SumoMBP-U2AF1;U2AF2 Cy3/Cy5 (human;human, UniProt Q01081;P26368-2 1-188;85-342, C67S|A181C;C305A;Q324C); test: smFRET titration; protein tethered; from 0.4 and 0.6 FRET peak areas; Anisotropy: 150 mM NaCl, 25 mM HEPES pH 6.8, 0.5 mM TCEP, 3% glycerol, 20 uM ZnCl2, 0.2 U/ul SUPERase-In; smFRET: 25 mM HEPES pH 7.0, 150 mM KCl, 0.01% octaethylene glycol monododecyl ether, 0.2 mM TCEP, 6 mM BME, 1.5 mM Trolox, oxygen scavenger, room temperature, excess U2AF1 (1000 nM) with heterodimer; settings: protein: recombinant;recombinant; tags: N-terminal His6-SUMO-MBP with AAA linker; C-terminal extra Ala;GST cleaved; Cy3/Cy5 on C181 and C324; copies: 1;1
# [2] = molecular target: T2, D215R/G319R U2AF2^Cy3/Cy5 (residues 85-342, C305A, A181C, Q324C, labelled with Cy3/Cy5) (human, UniProt P26368-2 85-342, D215R | G319R | C305A | A181C | Q324C, Cy3- or Cy5-maleimide on the cysteines at 181 and 324 (a mixture of Cy3/Cy5 at each site)); test: single-molecule imaging (smFRET, TIRF) of labelled U2AF2 tethered to the slide through His-tagged U2AF1; His6SumoMBP-U2AF1 with bound U2AF2^Cy3/Cy5 (5 nM heterodimer) held on biotinyl-NTA(Ni2+)/neutravidin slide; 1000 nM excess U2AF1 in the buffer; no RNA; room temperature; 25 mM HEPES pH 7.0, 150 mM KCl; settings: both partners purified
# T2 construct: The methods print the mutant once as D215R-D319R; results, legends and discussion print D215R/G319R; also called D215R/G319R mutant; D215R-D319R-mutant U2AF2; not shown: GST, N-terminal, cleaved
# [3] = molecular target: T3, U2AF2^Cy3/Cy5 (residues 85-342, C305A, A181C, Q324C, labelled with Cy3/Cy5) (human, UniProt P26368-2 85-342, C305A | A181C | Q324C, Cy3- or Cy5-maleimide on the cysteines at 181 and 324 (a mixture of Cy3/Cy5 at each site)); test: SEC; labelled U2AF2 mixed with stoichiometric His6SumoMBP-U2AF1, salt lowered to 150 mM NaCl, 25 mM HEPES pH 7.0, 3% glycerol, 0.2 mM TCEP; complex purified on Superdex-200; settings: both partners purified
# T3 construct: pGEX6p-1 vector, GST removed with PreScission protease; also called U2AF^65; labeled U2AF2; not shown: GST, N-terminal, cleaved
# [4] = molecular target: T3, U2AF2^Cy3/Cy5 (residues 85-342, C305A, …); test: single-molecule imaging (smFRET, TIRF) of labelled U2AF2 tethered to the slide through His-tagged U2AF1; His6SumoMBP-U2AF1 with bound U2AF2^Cy3/Cy5 (5 nM heterodimer) held on biotinyl-NTA(Ni2+)/neutravidin slide; 1000 nM excess U2AF1 in the buffer; no RNA; room temperature; 25 mM HEPES pH 7.0, 150 mM KCl; settings: both partners purified
# [5] = molecular target: T4, U2AF2 Cy3/Cy5 isolated subunit (human, UniProt P26368-2 113-342, A181C;C305A;Q324C); test: smFRET; RNA tethered; Anisotropy: 150 mM NaCl, 25 mM HEPES pH 6.8, 0.5 mM TCEP, 3% glycerol, 20 uM ZnCl2, 0.2 U/ul SUPERase-In; smFRET: 25 mM HEPES pH 7.0, 150 mM KCl, 0.01% octaethylene glycol monododecyl ether, 0.2 mM TCEP, 6 mM BME, 1.5 mM Trolox, oxygen scavenger, room temperature, excess U2AF1 (1000 nM) with heterodimer; settings: protein: recombinant, tags: His6 and T7 tags, label: biotin on annealed DNA, stem-loop
# [6] = molecular target: T1, His6SumoMBP-U2AF1;U2AF2 Cy3/Cy5; test: smFRET; RNA tethered; ~70% closed; Anisotropy: 150 mM NaCl, 25 mM HEPES pH 6.8, 0.5 mM TCEP, 3% glycerol, 20 uM ZnCl2, 0.2 U/ul SUPERase-In; smFRET: 25 mM HEPES pH 7.0, 150 mM KCl, 0.01% octaethylene glycol monododecyl ether, 0.2 mM TCEP, 6 mM BME, 1.5 mM Trolox, oxygen scavenger, room temperature, excess U2AF1 (1000 nM) with heterodimer; settings: protein: recombinant;recombinant; tags: N-terminal His6-SUMO-MBP with AAA linker; C-terminal extra Ala;GST cleaved; Cy3/Cy5 on C181 and C324; copies: 1;1; label: biotin on annealed DNA; stem-loop
# [7] = molecular target: T5, His6SumoMBP-U2AF1 S34F;U2AF2 Cy3/Cy5 (human;human, UniProt Q01081;P26368-2 1-188;85-342, S34F;C67S|A181C;C305A;Q324C); test: smFRET; RNA tethered; similar to WT; Anisotropy: 150 mM NaCl, 25 mM HEPES pH 6.8, 0.5 mM TCEP, 3% glycerol, 20 uM ZnCl2, 0.2 U/ul SUPERase-In; smFRET: 25 mM HEPES pH 7.0, 150 mM KCl, 0.01% octaethylene glycol monododecyl ether, 0.2 mM TCEP, 6 mM BME, 1.5 mM Trolox, oxygen scavenger, room temperature, excess U2AF1 (1000 nM) with heterodimer; settings: protein: recombinant;recombinant, tags: N-terminal His6-SUMO-MBP with AAA linker, C-terminal extra Ala;GST cleaved, Cy3/Cy5 on C181 and C324, copies: 1;1, label: biotin on annealed DNA
# [8] = molecular target: T5, His6SumoMBP-U2AF1 S34F;U2AF2 Cy3/Cy5; test: smFRET; RNA tethered; same as IgM(-3C); Anisotropy: 150 mM NaCl, 25 mM HEPES pH 6.8, 0.5 mM TCEP, 3% glycerol, 20 uM ZnCl2, 0.2 U/ul SUPERase-In; smFRET: 25 mM HEPES pH 7.0, 150 mM KCl, 0.01% octaethylene glycol monododecyl ether, 0.2 mM TCEP, 6 mM BME, 1.5 mM Trolox, oxygen scavenger, room temperature, excess U2AF1 (1000 nM) with heterodimer; settings: protein: recombinant;recombinant; tags: N-terminal His6-SUMO-MBP with AAA linker; C-terminal extra Ala;GST cleaved; Cy3/Cy5 on C181 and C324; copies: 1;1; label: biotin on annealed DNA; stem-loop (predicted)
# [9] = molecular target: T1, His6SumoMBP-U2AF1;U2AF2 Cy3/Cy5; test: smFRET; RNA tethered; more open than IgM(-3C); Anisotropy: 150 mM NaCl, 25 mM HEPES pH 6.8, 0.5 mM TCEP, 3% glycerol, 20 uM ZnCl2, 0.2 U/ul SUPERase-In; smFRET: 25 mM HEPES pH 7.0, 150 mM KCl, 0.01% octaethylene glycol monododecyl ether, 0.2 mM TCEP, 6 mM BME, 1.5 mM Trolox, oxygen scavenger, room temperature, excess U2AF1 (1000 nM) with heterodimer; settings: protein: recombinant;recombinant; tags: N-terminal His6-SUMO-MBP with AAA linker; C-terminal extra Ala;GST cleaved; Cy3/Cy5 on C181 and C324; copies: 1;1; label: biotin on annealed DNA; stem-loop (predicted)
# [10] = molecular target: T1, His6SumoMBP-U2AF1;U2AF2 Cy3/Cy5; test: smFRET; RNA tethered; open and closed; Anisotropy: 150 mM NaCl, 25 mM HEPES pH 6.8, 0.5 mM TCEP, 3% glycerol, 20 uM ZnCl2, 0.2 U/ul SUPERase-In; smFRET: 25 mM HEPES pH 7.0, 150 mM KCl, 0.01% octaethylene glycol monododecyl ether, 0.2 mM TCEP, 6 mM BME, 1.5 mM Trolox, oxygen scavenger, room temperature, excess U2AF1 (1000 nM) with heterodimer; settings: protein: recombinant;recombinant; tags: N-terminal His6-SUMO-MBP with AAA linker; C-terminal extra Ala;GST cleaved; Cy3/Cy5 on C181 and C324; copies: 1;1; label: biotin on annealed DNA
# [11] = molecular target: T1, His6SumoMBP-U2AF1;U2AF2 Cy3/Cy5; test: smFRET; RNA tethered; 66% closed; Anisotropy: 150 mM NaCl, 25 mM HEPES pH 6.8, 0.5 mM TCEP, 3% glycerol, 20 uM ZnCl2, 0.2 U/ul SUPERase-In; smFRET: 25 mM HEPES pH 7.0, 150 mM KCl, 0.01% octaethylene glycol monododecyl ether, 0.2 mM TCEP, 6 mM BME, 1.5 mM Trolox, oxygen scavenger, room temperature, excess U2AF1 (1000 nM) with heterodimer; settings: protein: recombinant;recombinant; tags: N-terminal His6-SUMO-MBP with AAA linker; C-terminal extra Ala;GST cleaved; Cy3/Cy5 on C181 and C324; copies: 1;1; label: biotin on annealed DNA
# [12] = molecular target: T5, His6SumoMBP-U2AF1 S34F;U2AF2 Cy3/Cy5; test: smFRET; RNA tethered; 33% closed; Anisotropy: 150 mM NaCl, 25 mM HEPES pH 6.8, 0.5 mM TCEP, 3% glycerol, 20 uM ZnCl2, 0.2 U/ul SUPERase-In; smFRET: 25 mM HEPES pH 7.0, 150 mM KCl, 0.01% octaethylene glycol monododecyl ether, 0.2 mM TCEP, 6 mM BME, 1.5 mM Trolox, oxygen scavenger, room temperature, excess U2AF1 (1000 nM) with heterodimer; settings: protein: recombinant;recombinant; tags: N-terminal His6-SUMO-MBP with AAA linker; C-terminal extra Ala;GST cleaved; Cy3/Cy5 on C181 and C324; copies: 1;1; label: biotin on annealed DNA
# [13] = molecular target: T4, U2AF2 Cy3/Cy5 isolated subunit; test: smFRET; RNA tethered; open and closed; Anisotropy: 150 mM NaCl, 25 mM HEPES pH 6.8, 0.5 mM TCEP, 3% glycerol, 20 uM ZnCl2, 0.2 U/ul SUPERase-In; smFRET: 25 mM HEPES pH 7.0, 150 mM KCl, 0.01% octaethylene glycol monododecyl ether, 0.2 mM TCEP, 6 mM BME, 1.5 mM Trolox, oxygen scavenger, room temperature, excess U2AF1 (1000 nM) with heterodimer; settings: protein: recombinant; tags: His6 and T7 tags; Cy3/Cy5; label: biotin on annealed DNA
# T1 sequence (P26368 85-342 A181C/C305A/Q324C, one chain of several): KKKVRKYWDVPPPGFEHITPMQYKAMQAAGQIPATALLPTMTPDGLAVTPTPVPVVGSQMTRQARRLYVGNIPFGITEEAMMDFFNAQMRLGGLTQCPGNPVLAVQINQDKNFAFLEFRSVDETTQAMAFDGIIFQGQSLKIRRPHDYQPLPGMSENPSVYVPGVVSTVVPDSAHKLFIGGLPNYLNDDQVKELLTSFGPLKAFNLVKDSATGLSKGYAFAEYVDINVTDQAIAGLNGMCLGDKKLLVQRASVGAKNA
# T5 sequence (P26368 85-342 A181C/C305A/Q324C, one chain of several): as above
# T3 sequence (P26368 85-342 A181C/C305A/Q324C): as the sequence (P26368 85-342 A181C/C305A/Q324C, one chain of several) above
# T4 sequence (P26368 113-342 A181C/C305A/Q324C): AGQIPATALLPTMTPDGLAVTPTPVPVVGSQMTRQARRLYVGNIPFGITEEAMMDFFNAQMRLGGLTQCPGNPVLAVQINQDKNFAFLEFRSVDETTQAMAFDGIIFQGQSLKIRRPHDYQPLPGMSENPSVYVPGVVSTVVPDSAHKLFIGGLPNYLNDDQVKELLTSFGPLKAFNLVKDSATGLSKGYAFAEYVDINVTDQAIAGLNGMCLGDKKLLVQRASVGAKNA
# T2 sequence (P26368 85-342 A181C/D215R/C305A/G319R/Q324C): as the sequence (P26368 85-342 A181C/C305A/Q324C, one chain of several) above, with D131R, G235R counted along it
binder,measurement,setting,value
B1,Kd,[1],~600 nM
B2,binding result,[2],binds
same,binding result,[3],binds
B3,binding result,[4],binds
B4,binding result,[5],binds
same,binding result,[6],binds
same,binding result,[7]; stem-loop,binds
B5,binding result,[8],binds
same,binding result,[9],binds
B6,binding result,[10],binds
same,binding result,[7],binds
B7,binding result,[11],binds
same,binding result,[12],binds
B8,binding result,[13],binds
same,binding result,[10],binds
same,binding result,[7],binds
